Entries after “also recorded” stand apart in the source; their conditions may differ.
Experiments:
Ad3-GFP virus = assay: Competition of Ad3-GFP virus infection on HeLa cells; assay type: cell-based, adenovirus serotype 3 (Ad3); settings: HeLa cells pre-incubated with knob, 100 pfu/cell Ad3-GFP, GFP at 18 hours
Method: FIG. 3. Competition of Ad3 virus by dimerized Ad3 knob mutants. A) Relative attachment of ^3H-labeled Ad3 virus in the presence of dimeric fiber knob mutants. 1.8×10^5 HeLa cells were incubated with Ad3 knob mutants at a concentration of 2.5 and 100 μg/ml on ice for 1 hour. Then 400 pfu/cell of ^3H-Ad3 virus was added on ice for another hour. Unbound virus particles were washed away. Attachment of virus particles incubated with PBS was taken as 100%. N=3. B) Competition of Ad3-GFP virus infection on HeLa cells. 1.5×10^5 HeLa cells were seeded into 24 well plates. Cells were incubated with the Ad3 knob mutants at increasing concentrations for one hour at room temperature. 100 pfu/cell of Ad3-GFP virus were then added and GFP expression was analyzed 18 hours later by flow cytometry. Left panel: percentage of GFP positive cells. Right panel: mean fluorescence intensity. N=3. The standard deviation was less than 10%. C) Relative attachment of ^3H-labeled Ad3 virus in the presence of dimeric fiber knob mutants with multiple mutations. The study was performed as described in […]) The standard deviation was less than 10%. D) Competition of Ad3-GFP virus infection on HeLa cells. The study was performed as described in C) The standard deviation was less than 10%.
FIG. 9. Analysis of dimeric Ad3 fiber knob mutants with increased affinity to DSG2. A) Competition of Ad3-GFP virus infection on HeLa cells with dimeric affinity-enhanced mutant Y250F and JO-1 (dimeric wt Ad3 fiber knob). The experimental setting is as described for FIG. 3C. left panel: percentage of GFP positive cells. Right panel: mean fluorescence intensity. N=3. The standard deviation was less than 10%. […] 100 pfu/cell of Ad3GFP virus were then added and GFP expression was analyzed 18 hours later. […]
Competition studies were performed on HeLa cells, which express DSG2 (42). […] Transduction was measured based on GFP expression (FIG. 3B). […] Dimeric Ad3 knob mutants with combined mutations were also analyzed for their ability to compete with Ad3 virus for attachment (FIG. 3C) and infection (FIG. 3D).

[1] = Serum clearance of JO-1 and JO-4 by ELISA; assay type: in vivo, hDSG2 transgenic mice; settings: 2 mg/kg i.v.; for Decline of serum concentration within an hour after injection: TC1-hDSG2 tumors ~600 mm^3, N=3; for Serum concentration plateau: after one hour post-injection
Method: FIG. 11. Pharmacokinetics, toxicity, and immunogenicity of JO-4. A) Serum clearance of JO-1 and JO-4. hDSG2 transgenic mice with subcutaneous TC1-hDSG2 tumors (˜600 mm^3) were intravenously injected with JO-1 or JO-4 (2 mg/kg) and serum samples were analyzed for by ELISA. N=3. Note that the y-axis has a log scale. B) Lymphocyte and platelet counts in hDSG2/TC1-hDSG2 transgenic mice after JO-1 or JO-4 injection. N=3. C) Therapy studies in immunocompetent hDSG2 transgenic mice with TC1-hDSG2 tumors. When tumors reached a volume of ˜80 mm^3, JO-1 or JO-4 (2 mg/kg) or PBS was injected intravenously followed one hour later by PLD/Doxil (i.v. 1.5 mg/kg). Treatment was repeated as indicated by arrows. Tumors were then allowed to re-grow for about two weeks. From day 15 on serum anti-JO-1/J)-4 antibodies were detectable by ELISA. Two more treatment cycles were performed at day 28 and day 35. […] The difference between JO-1/PLD vs JO-4/PLD is significant from day 31 on. N=10.
Two of the affinity enhanced version of JO-1, Y293D and V250F were analyzed in in vivo assay. We called these mutants JO-2 and JO-4, respectively. The first study was performed in a xenograft model derived from A549 cells similar to the study described for FIG. 5B. […] Additional studies were performed in xenograft tumors derived from ovc316 cells (30, 32). Ovc316 cells are Her2/neu positive epithelial tumor cells derived from an ovarian cancer biopsy. These cells can undergo EMT and the reverse process, mesenchymal-to-epithelial-transition (MET), under specific conditions in vitro and in vivo. A subfraction of ovc316 cells that is positive for Nanog, CD133, and E-cadherin is enriched for cancer stem cells, i.e. self-renewing cells with pluripotent potential and tumor forming ability (30). Ovc316 cells therefore closely model the heterogeneity and plasticity seen in tumors in situ. […] Finally, we tested JO-4 in a model for triple-negative breast cancer (TNBC). TNBC is characterized by a lack or minimal expression of estrogen receptor (ER), progesterone receptor (PR) and the absence of Her2/neu overexpression. TNBC accounts for 15% of all breast cancers. Overall survival is poor compared with that in patients who have other phenotypes. A characteristic feature of TNBC is high levels of DSG2 and epithelial junctions. Promising clinical results in the treatment of TNBS have been achieved with nanoparticle, albumin-conjugated paclitaxel (nab-paclitaxel/Abraxane™) alone or in combination with the EGFR-targeting mAb cetuximab/Erbitux™ (38). […] Because of its therapeutic relevance, we further studied JO-4 in an adequate mouse tumor model. […] These mice were subcutaneously implanted with syngeneic TC1-hDSG tumors. […] We also analyzed hematological parameters after i.v. JO-1 and JO-4 injection.

Molecule	Competition of Ad3-GFP infection based on GFP expression (Ad3-GFP virus)	Decline of serum concentration within an hour after injection [1]	Serum concentration plateau [1] [ng/mL]
D261N (protein) MKVSALKEKVSALKEKVSALKEKVSALKEKVSALKEGSGGGSGGGSGGGSNSIALKNNTLWTGPKPEANCIIEYGKQNPDSKLTLILVKNGGIVNGYVTLMGASDYVNTLFKNKNVSINVELYFDATGHILPDSSSLKTDLELKYKQTADFSARGFMPSTTAYPFVLPNAGTHNENYIFGQCYYKASNGALFPLEVTVMLNKRLPDSRTSYVMTFLWSLNAGLAPETTQATLITSPFTFSYIREDD	least reduced		
JO-1: recombinant protein with the Ad3 fiber knob and a domain for self-dimerization of trimeric knobs (SEQ ID NO:27) (protein) MKVSALKEKVSALKEKVSALKEKVSALKEKVSALKEGSGGGSGGGSGGGSNSIALKNNTLWTGPKPEANCIIEYGKQNPDSKLTLILVKNGGIVNGYVTLMGASDYVNTLFKNKNVSINVELYFDATGHILPDSSSLKTDLELKYKQTADFSARGFMPSTTAYPFVLPNAGTHNENYIFGQCYYKASDGALFPLEVTVMLNKRLPDSRTSYVMTFLWSLNAGLAPETTQATLITSPFTFSYIREDD		declined more than one order of magnitude	~100
JO-4 (protein) MKVSALKEKVSALKEKVSALKEKVSALKEKVSALKEGSGGGSGGGSGGGSNSIALKNNTLWTGPKPEANCIIEYGKQNPDSKLTLILVKNGGIVNGYVTLMGASDYVNTLFKNKNVSINVELYFDATGHILPDSSSLKTDLELKYKQTADFSARGFMPSTTAYPFVLPNAGTHNENFIFGQCYYKASDGALFPLEVTVMLNKRLPDSRTSYVMTFLWSLNAGLAPETTQATLITSPFTFSYIREDD		declined more than one order of magnitude; also recorded: significantly greater	~100

From patent publication US20150246949A1, “Desmoglein 2 (DSG2) Binding Proteins and Uses Therefor” (UNIVERSITY OF WASHINGTON THROUGH ITS CENTER FOR …, priority 2012, published 2015)
